Target: GMPCPP-stabilised rhodamine microtubules
Assay: single-molecule TIRF motility assay

Row | residency time on the microtubule | landing rate (events μm^−1 min^−1) | processive landing rate (events μm^−1 min^−1) | Substance
1 | 6.36 s |  |  | CENP-E483 with a GCN4 leucine zipper domain fused to its C terminus (from UniProt Q02224 1-483)
2 | 37.1 s | 0.147 | 0.009 | full-length human CENP-E-mNeonGreen, Q02224 1-2701

Reference: article doi:10.1101/2022.01.21.477187
